The nanobody polyreactivity screen of Harvey et al. (2022)

Experiment: yeast display, Sf9 membrane polyspecificity reagent, FACS + sequencing; frameworks hold sequencing errors
How it was run: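 Sorting gates, low and high (top ~1%), were placed on anti-HA fluorescence to track expression and on streptavidin fluorescence to track reagent binding. A clone's polyreactivity label is taken from the gate it came out of. The reagent was 10% biotinylated, detergent-solubilized Sf9 membrane, applied for 1 hour at 4 °C to galactose-induced yeast display cells.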

QVQLVESGGGLVQAGGSLRLSCAASGFIFGYYAMGWYRQAPGKERELVAAISSRGGSTYYADSVKGRFTISRDNAKNTVYLQMNSLIPEDTAVYYCAVRLVSFRHNFGQYDYWGQGTQLTVSS
polyreactivity (PSR sort gate): high polyreactivity

QVQLVESGGGLVQAGGSLRLTCAASGRTFQYYSMGWYRQAPGKERELVAAISQDGGSTYYADSVKGRFTISRDNAKNTVYLQMNSLKPEDTAVYYCAARVDEYAYYALDDYWGQGTQVTVSS
polyreactivity (PSR sort gate): low polyreactivity

QVQLVESGGGLVQAGGSLRLSCAASGSIFGPYAMGWYRQAHGKERELVAAITISGGSTYYADSVKRRFTISRDNAKNTVYLQINSLKPEDTAVYYCAADYWVDYEYDYYWEYNYWGQGSQVTVSS
polyreactivity (PSR sort gate): high polyreactivity

QVQLVESGGGLVQAGGSLRLSCAASGRTFPGNAMGWSRQAPGKERELVATITWSSGRTHYADSVKGRFTISRDNAKNTVYLQMNSLKPEDTAVYYCAAKWIVAVGGFYYWGQGTQVTVSS
polyreactivity (PSR sort gate): low polyreactivity

QVQLVESGGGLVQAGGSLRLSCDASGLTIYGYAIGSYRQAPGKERELVAAITSGDSTYYADSVKGRFTISRDTAKNTVYFQMNSLKPDDTAVYYCAAVGGYPRYGYWGQGTQVTVSS
polyreactivity (PSR sort gate): high polyreactivity

QVQLVESGGGLVQAGGSLRLSCAASGRTFYRYAMGWYRQAPGKERELVAVISGRGGGTYYADSVKGRFTISRDNAKNTVYLQMNSLKPEDTAVYYCAKEYWGVTPTYYYWGQGTQVTVSS
polyreactivity (PSR sort gate): high polyreactivity

QDQHVESGGGLVQEGGSLRLSCASSSSTFEYYAMGWYRQPPGKERELVATISIDGRTNYADSVKGRFTISRDNAKNTVYLQMNSLKPEDTAVYYCAARPYWRHRYDYWVQGTQVTVSS
polyreactivity (PSR sort gate): low polyreactivity

QVQLVESGGGLVQAGGSLRLSCAASGFTFGTYDMGWYRQAPGKERELVAAIDWGGGSTYYADSVKGRFTISRDNAKNTFYLQMNSLKTEDTAFYYCAADGPGDYLTLEWYWFTYYYWGQGTQVTVTS
polyreactivity (PSR sort gate): high polyreactivity

QVQLVESGGGLVQAGGSLRLSCAASGSTFTPYAMGWYRQAPAKERELVAAITSGGPTNYADSVKGRFTISRDNAKNTVYLQMNSLKPEDTAVYYCNAEYLYWWEIYDYWGQGNQVTVSS
polyreactivity (PSR sort gate): high polyreactivity

QVQLVESGGGLVQAGGSLRLSCAASGRIFNLYAMGWYRQAPGKERDLVAAINWSGDRTYYADSVKGRFTISRDNAKNTVYLQMNSLKPDDTAVYYCNADGLEIERYAYWYVFLGYDYWGQGTQVTVSS
polyreactivity (PSR sort gate): low polyreactivity

QVQLVESGGGLVQAGGSLRLSCAASGRTFVPYAMGWYRQAPGKERELVARIDSSGGSTYYADSVKGRFTISRDNAKNTVYLQMNSLKPEDTAVYYCAAVFYYWSLRSYYWGQGTQVTVSS
polyreactivity (PSR sort gate): high polyreactivity

QVQLVESGGGLVQAGGSLRLSCAASGGIFFTYAMGWYRQAPGKERELVAGISWSDGSTYADSVKGRFTISRDNAKNTVYLQMNSLKPEDTAVYYCNKRIYDLFLSPAAGGYWGQGTQVTVSS
polyreactivity (PSR sort gate): low polyreactivity

QVQLVESGGGLVQAGGSLRLSCAASGSIIPRNVMGWYRQAPGNERELVAAISRSGGSTSYADSVKGRFTISRDNAKNTVYLQMNSLKPEDTAVYYCKAPWQRYSAPWGQGYNYWGQGTQVTVSS
polyreactivity (PSR sort gate): high polyreactivity

QVQLVESGGGLVQAGGSLRLSCAASGLTFYVYAMGWYRQAPGKEREFVAAISWSGTSTSYADSVKGRFTISRDNAKNTVYLQMNSLKPEDTAVYYCAADVHTPALYTYAAGDYWGQGTQVTVSS
polyreactivity (PSR sort gate): low polyreactivity

QVQLVESGGGLVQAGGRLRLSCAASGSILGAYTMGWYRQAPGKERELVAAITRRGGSTYYSDSVKGRFTISRDNAKNTVYLQMNSLKPEDTAVYYCNAEYGVWYDYLVGPYDYWGQGNQVTVSS
polyreactivity (PSR sort gate): low polyreactivity

QVQLVESGGGLVQAGGSLRLSCAASGFTFWRYAMGWSRQAPGKERELVAAISRTGGRTYYADSVKGRFTISRDNAKITVYLQMTSLKPEDTAVYYCAAVKYETYRYNYDYWGQGTQVTVSS
polyreactivity (PSR sort gate): high polyreactivity

HVQLLESGGGLLQAGGSLRLSCMASGSILRDRMSWYLQAPGKEHELVATIYDGGITYYADSMKGRFTISRDNAKNTVYLQMNSLRPEDTAVYYCGASFEGYRYHVYCGQGTQVTVSS
polyreactivity (PSR sort gate): low polyreactivity

QVQLVESGGGLGQAGGSLRLSCAASGRTITFNTMGWYRPAPGKERELVAGIDRGGSTNYADSVKGRFTISRDNAKNTVDLQMNSLKPEDTAVYYCAARNLRYRYRNYDYWGQGTQVTVSS
polyreactivity (PSR sort gate): high polyreactivity

QVQLVESGGGLVQAGGSLRLSCAASGLIFGRYAMGWYRQAPGKERELVAAITCGTNTNYADSVKGRFTISRDNAKNTVYLQMNSLKPEDTAVYYCGKASGRCSLARGATYSVDYWGQGTQVTVSS
polyreactivity (PSR sort gate): high polyreactivity

QVQLVESGGGLVQEGGSLRLICAASGRTFYINDMGWYRQAPGKEREFVAAITWSGGSTYYADSVKGRFTISRDNAKNTVYLQMNSLKPEDTAVYYCARPYRGSPRYYYWGQGTQVTVSS
polyreactivity (PSR sort gate): high polyreactivity

QVQLVESGGGLVQAGGSLRLSCAATGSTFRKYAMGWYRQAPGKEREFVAAISSAGGRTYYADSVKGRFTISRDNAKNTVYLQMNSLKPEDTAVYYCNAYFRYSYDYWGQGTQVTVSS
polyreactivity (PSR sort gate): high polyreactivity

QVQLVESGGGLVQAGGSLRLSCAASGRIFYHYAMGWYRQAPGKERELVAASNSSGGSTHYADSVKGRFTISRDNAKNTVYLQMNSLKPEDTAVYYCAADGYWRDYSGYWDYYYIYDYWGQGTQVTVSS
polyreactivity (PSR sort gate): low polyreactivity

QVQLVESGGGLVQAGGSLRLSCAASGITLWQYAMGWYRQAPGKERELVAGITDTGDSTYYADSVKGRFTISRDNAKNTVYLQMNSLKPEDTAVYYCAVPRSALLRAPYELYSWGQGTQVTVSS
polyreactivity (PSR sort gate): low polyreactivity

QVQLVESGGGLVQAGGSLRLSCAASGRTFYFNTMGWDRPAPGKERELVAAIDERGDSTYYADSVKGRFTISRDNAKNTVYLQMNSLKPEDTAVYYCATDWTLEVYYGRYIAKYEYGSWGQGTQVTVSS
polyreactivity (PSR sort gate): low polyreactivity

QDQLVESGGGLVQAGGSLRLSCAASGSIFDIYAMGWYRQAPGKEREMVASIRRRGGSTYYADSVKGRFTISRDNAKNTVYLQMNSLKPEDTAVYDCNARRVWLRTTWTNWPERGYWGQGTQVTVSS
polyreactivity (PSR sort gate): high polyreactivity

QVQLVESGGGLVQAGGSLRLSCAASGSTFGYYAMGWYRQAPGKERELVAAISASGSRTYYADSVKGRFTISRDNAKNTVYSQMNSQKPEDTAVYYCPALQYRRKIPTAYAGDYWGQGTQVTVSS
polyreactivity (PSR sort gate): high polyreactivity

QVQLVESGGGLVQAGGSLRLSCAASGSTFRFNAMGWYSQAPGKERELVAAITGIGGITYYADSVKGRFTISRDNAKNTVYLQMNSLKPEDTAVYYCNAVAARYSVRNGYSTHYDYWGQGTQVTVSS
polyreactivity (PSR sort gate): high polyreactivity

QVHLVESGGGLVQAGGSLRLSCAASGRTFDINAMGWYRQAPGKERELVAAISSRGGTTFYADSVKGRFTISRDHAKNTVYLQMNSLKPEDTAVYYCAAEYSSYYTRGGSYNYWGQGTQVTVSS
polyreactivity (PSR sort gate): low polyreactivity

QVQLVESGGGIVQAGGSLRLSCAASGRIFTRNAMGWYRQAPGKERELVAAISYSGGTTYYADSVKGRFTISRDNAKNTVYLQMNSLKPEDTAVYYCAALRPTQRYFTYDYWGQGTQVTVSS
polyreactivity (PSR sort gate): high polyreactivity

QVQLVESGGGLVQAGGSLRLSCAASGFTFFTNAMGWYRQAPGKERELVATITSNGSTNYADSVKGRFTISRDNAKNTVYLQMISLKPEDTAVYYCAADQDSVSMDYWGQGTQVTVSS
polyreactivity (PSR sort gate): low polyreactivity

QVQLVESGGCLVQAGGSLRLSCAASRFTFTYYAMGWYRHAPGKESELVAAITRRGGRTYYAYSVKGRFTISRDNAKNTVYLQMNSLKPEDTAVYYCNADEYGGSTGRKGRYNYWGQGTQVTVSS
polyreactivity (PSR sort gate): low polyreactivity

QVQLVESGGGLVQAGGSLRLSCAASGSIFSVYVMGWYRQAPGKESELVAAISWSDRDTYYADSVKGRFTISRDYAKNTVDFQMNSLKPVDTAVYYGAAETFDYDVYIANGSGEYDYWGQVTQVTVSS
polyreactivity (PSR sort gate): high polyreactivity

QVQLVESGGGLVQAGGSIRLSCAASGNTFRWYAMGWYRQAPGKEREFVAAISSSGGSTYYADSVKGRFTISRDNAKNTVYLQMNSLKPEDTAVYYCNAASVTRHVSFATDYEYWGQGTQVTVSS
polyreactivity (PSR sort gate): high polyreactivity

QVQLVESGGGLVQAGGSLRLSCAASGRTFRTNAMGWYRQAPGKERELVAAIRASTGSTYYADSVKGRFTISRDNAKNTVYLQMNSLKPEDTAVYYCAATTQGVRYGYWGQGTQVTVSA
polyreactivity (PSR sort gate): high polyreactivity

QVQLVESGGGLVQAGGSLRLSCAASGRIFYYAMGWYRQAPGKERELVAVITYSGGNTYYADSVKGRFTISRDNAKNTVYLQMNSLKPEDTAVYYCAKAVSTKISRYYHYYKHYDYWGQGTQVTVSS
polyreactivity (PSR sort gate): low polyreactivity

QVQLVESGGGLVQAGGSLRLSCAASGSIFSTYAMGWYRQAPGKERELVAAISGSGGRTYYADSVKGRFTISRDNAKNTVYLQMNSLKPEDTAVYDCASRVFRGLGEYYWGQGTQVTVSS
polyreactivity (PSR sort gate): high polyreactivity

QVQLVESGGCLVQAGGSLRLSCSASGIIFFPYAMGWYRQAPGKERELVASINISDSSTYYADSVNGRFTISRDNAKNTVYLQMNTLKPEDSAVSYCAADNPGDSWYWHGNWGQGTQVTVSS
polyreactivity (PSR sort gate): low polyreactivity

QVQLVESGGGLVQAGGSLRLSCAASGRTFKIHAMGWYRQATGKERELVAAISTSGGSTYYADSVKGRLTISRDNAKNTVYLQMNSLKPEDTAVYYCNAPVFRVGRPEYDYWGQGTQVTVSS
polyreactivity (PSR sort gate): high polyreactivity

QVQLVESGGGLVQAGGSLRLSCAASGSIFGDNAMGWYRQAPGKERELVAAITSSGGSTYYADSVKGRFTISRDNAKNTVYLQMNSLKPEDTAVYYCNADFGYGWYLRYDYWGQGTQVTVSS
polyreactivity (PSR sort gate): high polyreactivity

QVQLVESGGGLVQAGGSLRLSCAASGFIFRHYAMGWYRQAPGKARELVAVINWSGSSTYYADSVKGRFTISRDNAKNTVYLQMNSLKPEDTAVYYCAVRSLRVDKYGYWGQGTQVTVSS
polyreactivity (PSR sort gate): high polyreactivity

QVQLVESGGGLVQAGGSRRVSCAASGCIFGYNDMGWSRQAPGKDRELDASITWGGGRTRYADSVKGRFTISRDNAKNTVDLHMNSLKPEDTAVYYGAADKRSYSYVRPPRNQEDYWGQGTQVTVSS
polyreactivity (PSR sort gate): low polyreactivity

QVQLVESGGGLVPAGGSLRLSCAASGFTFGVYAMGWYRQAPGKERELVAAITWSGGRTYYADSVKGRFTISRDNAKNSVYLQMNSLKPEDTAVYYCAAGFYRYNAVRYDYWGQGTQVTVSS
polyreactivity (PSR sort gate): high polyreactivity
